Test system: T1, FLAG-Heme1B (human Eme1B, FLAG tagged at the C terminus)
T1 sequence: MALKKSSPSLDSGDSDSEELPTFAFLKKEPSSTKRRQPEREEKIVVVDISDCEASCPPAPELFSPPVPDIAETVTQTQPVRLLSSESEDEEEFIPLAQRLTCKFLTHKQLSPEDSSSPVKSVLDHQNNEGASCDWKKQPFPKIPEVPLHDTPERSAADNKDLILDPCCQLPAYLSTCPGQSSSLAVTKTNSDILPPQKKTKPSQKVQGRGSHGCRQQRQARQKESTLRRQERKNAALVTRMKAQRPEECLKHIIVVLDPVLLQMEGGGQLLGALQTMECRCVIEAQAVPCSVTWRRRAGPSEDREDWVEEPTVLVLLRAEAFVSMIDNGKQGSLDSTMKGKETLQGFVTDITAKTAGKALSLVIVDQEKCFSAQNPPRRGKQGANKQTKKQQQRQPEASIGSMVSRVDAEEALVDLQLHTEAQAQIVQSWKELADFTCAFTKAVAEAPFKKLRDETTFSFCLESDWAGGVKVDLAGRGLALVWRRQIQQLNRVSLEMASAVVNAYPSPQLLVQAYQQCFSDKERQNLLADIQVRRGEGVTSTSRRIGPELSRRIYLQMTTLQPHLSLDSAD

3HaMus81 (triple hemagglutinin (3Ha) tagged Hmus81), wild type
endonuclease activity of immune-precipitates on a 3' flap substrate: The activity of 3HaMus81 was greatly increased in cells that had been co-transfected with FLAG-Eme1B
